Among the data in patent US7371376 are % apoptosis of BT474 cell population (Hoechst 33342 cell cycle analysis, 3 days), proportion of S-phase cells (BT474, 3 days) and Kd values, retold here.

The term Kd denotes the constant that tells how readily two partners part at equilibrium.

Assay [1] addresses human ErbB2 receptor on BT474 human breast tumor cells (human) (UniProt P04626). In words: cell-based or functional assay.
Assay [2] has the same target. In words: Scatchard analysis, 125I-antibody on BT474 cell monolayers, on ice.

In assay [1], “anti-ErbB2 IgG1κ murine monoclonal antibody 4D5 (ATCC CRL 10463)” registered a % apoptosis of BT474 cell population (Hoechst 33342 cell cycle analysis, 3 days) of 41.9% and a proportion of S-phase cells (BT474, 3 days) of 5.4%. Moreover, the Kd in assay [2] was 6.5 nM.
